B1: AAV9-X1.1 capsid (complex, adeno-associated virus 9, UniProt Q6JC40 1-736, looked up)
chain: MAADGYLPDWLEDNLSEGIREWWALKPGAPQPKANQQHQDNARGLVLPGYKYLGPGNGLDKGEPVNAADAAALEHDKAYDQQLKAGDNPYLKYNHADAEFQERLKEDTSFGGNLGRAVFQAKKRLLEPLGLVEEAAKTAPGKKRPVEQSPQEPDSSAGIGKSGAQPAKKRLNFGQTGDTESVPDPQPIGEPPAAPSGVGSLTMASGGGAPVADNNEGADGVGSSSGNWHCDSQWLGDRVITTSTRTWALPTYNNHLYKQISNSTSGGSSNDNAYFGYSTPWGYFDFNRFHCHFSPRDWQRLINNNWGFRPKRLNFKLFNIQVKEVTDNNGVKTIANNLTSTVQVFTDSDYQLPYVLGSAHEGCLPPFPADVFMIPQYGYLTLNDGSQAVGRSSFYCLEYFPSQMLRTGNNFQFSYEFENVPFHSSYAHSQSLDRLMNPLIDQYLYYLSKTIDGAATKNQTLKFSVAGPSNMAVQGRNYIPGPSYRQQRVSTTVTQNNNSEFAWPGASSWALNGRNSLMNPGPAMASHKEGEDRFFPLSGSLIFGKQGTGRDNVDADKVMITNEEEIKTTNPVATESYGQVATNHQSAQGNNTRSVAQAQTGWVQNQGILPGMVWQDRDVYLQGPIWAKIPHTDGNFHPSPLMGGFGMKHPPPQILIKNTPVPADPPTAFNKDKLNSFITQYSTGQVSVEIEWELQKENSKRWNPEIQYTSNYYKSNNVEFAVNTEGVYSEPRPIGTRYLTRNL
notes: AAV9 capsid protein VP1 with changes in VR-IV and VR-VIII; numbers count on VP1; also called AAV-X1.1; source: HEK293 cells, triple transfected, purified (iodixanol gradient); copies: 60
B2: mouse LRP6-E1E2 (N-half of the extracellular domain, AA 20-628) tagged with mouse IgG2a Fc (Fc fusion, UniProt O88572 20-628, looked up)
chain: APLLLYANRRDLRLVDATNGKENATIVVGGLEDAAAVDFVFGHGLIYWSDVSEEAIKRTEFNKSESVQNVVVSGLLSPDGLACDWLGEKLYWTDSETNRIEVSNLDGSLRKVLFWQELDQPRAIALDPSSGFMYWTDWGEVPKIERAGMDGSSRFVIINTEIYWPNGLTLDYQERKLYWADAKLNFIHKSNLDGTNRQAVVKGSLPHPFALTLFEDTLYWTDWNTHSILACNKYTGEGLREIHSNIFSPMDIHAFSQQRQPNATNPCGIDNGGCSHLCLMSPVKPFYQCACPTGVKLMENGKTCKDGATELLLLARRTDLRRISLDTPDFTDIVLQLEDIRHAIAIDYDPVEGYIYWTDDEVRAIRRSFIDGSGSQFVVTAQIAHPDGIAVDWVARNLYWTDTGTDRIEVTRLNGTMRKILISEDLEEPRAIVLDPMVGYMYWTDWGEIPKIERAALDGSDRVVLVNTSLGWPNGLALDYDEGTIYWGDAKTDKIEVMNTDGTGRRVLVEDKIPHIFGFTLLGDYVYWTDWQRRSIERVHKRSAEREVIIDQLPDLMGLKATSVHRVIGSNPCAEDNGGCSHLCLYRPQGLRCACPIGFELIGDMKTCI
notes: mouse LRP6, YWTD domains 1 and 2 (E1E2), AA 20-628; source: bought: Bio-Techne
B3: AAV.CAP-Mac capsid (complex, adeno-associated virus 9, UniProt Q6JC40 1-736, looked up)
chain: MAADGYLPDWLEDNLSEGIREWWALKPGAPQPKANQQHQDNARGLVLPGYKYLGPGNGLDKGEPVNAADAAALEHDKAYDQQLKAGDNPYLKYNHADAEFQERLKEDTSFGGNLGRAVFQAKKRLLEPLGLVEEAAKTAPGKKRPVEQSPQEPDSSAGIGKSGAQPAKKRLNFGQTGDTESVPDPQPIGEPPAAPSGVGSLTMASGGGAPVADNNEGADGVGSSSGNWHCDSQWLGDRVITTSTRTWALPTYNNHLYKQISNSTSGGSSNDNAYFGYSTPWGYFDFNRFHCHFSPRDWQRLINNNWGFRPKRLNFKLFNIQVKEVTDNNGVKTIANNLTSTVQVFTDSDYQLPYVLGSAHEGCLPPFPADVFMIPQYGYLTLNDGSQAVGRSSFYCLEYFPSQMLRTGNNFQFSYEFENVPFHSSYAHSQSLDRLMNPLIDQYLYYLSKTINGSGQNQQTLKFSVAGPSNMAVQGRNYIPGPSYRQQRVSTTVTQNNNSEFAWPGASSWALNGRNSLMNPGPAMASHKEGEDRFFPLSGSLIFGKQGTGRDNVDADKVMITNEEEIKTTNPVATESYGQVATNHQSAQLNTTKPIAQAQTGWVQNQGILPGMVWQDRDVYLQGPIWAKIPHTDGNFHPSPLMGGFGMKHPPPQILIKNTPVPADPPTAFNKDKLNSFITQYSTGQVSVEIEWELQKENSKRWNPEIQYTSNYYKSNNVEFAVNTEGVYSEPRPIGTRYLTRNL
notes: AAV9 capsid protein VP1 with an insertion in VR-VIII; numbers count on VP1; source: HEK293 cells, triple transfected, purified (iodixanol gradient); copies: 60

Tests used:
Settings in all cases: both partners purified
[1] = molecular target: T1, mouse LRP6 (AA 20-1366) with a 6xHis tag (mouse, UniProt O88572 20-1366); assay: pull-down; prey AAVs mixed with His-tagged bait protein and Ni-NTA resin in DPBS with 20 mM imidazole, 1 h at 4 °C; eluate analysed by Western blot with anti-VP1/VP2/VP3 and anti-6xHis
T1 construct: mouse LRP6 extracellular domain, AA 20-1366; also called full length extracellular domain of mouse LRP6; source: bought: Bio-Techne
T1 sequence (looked up): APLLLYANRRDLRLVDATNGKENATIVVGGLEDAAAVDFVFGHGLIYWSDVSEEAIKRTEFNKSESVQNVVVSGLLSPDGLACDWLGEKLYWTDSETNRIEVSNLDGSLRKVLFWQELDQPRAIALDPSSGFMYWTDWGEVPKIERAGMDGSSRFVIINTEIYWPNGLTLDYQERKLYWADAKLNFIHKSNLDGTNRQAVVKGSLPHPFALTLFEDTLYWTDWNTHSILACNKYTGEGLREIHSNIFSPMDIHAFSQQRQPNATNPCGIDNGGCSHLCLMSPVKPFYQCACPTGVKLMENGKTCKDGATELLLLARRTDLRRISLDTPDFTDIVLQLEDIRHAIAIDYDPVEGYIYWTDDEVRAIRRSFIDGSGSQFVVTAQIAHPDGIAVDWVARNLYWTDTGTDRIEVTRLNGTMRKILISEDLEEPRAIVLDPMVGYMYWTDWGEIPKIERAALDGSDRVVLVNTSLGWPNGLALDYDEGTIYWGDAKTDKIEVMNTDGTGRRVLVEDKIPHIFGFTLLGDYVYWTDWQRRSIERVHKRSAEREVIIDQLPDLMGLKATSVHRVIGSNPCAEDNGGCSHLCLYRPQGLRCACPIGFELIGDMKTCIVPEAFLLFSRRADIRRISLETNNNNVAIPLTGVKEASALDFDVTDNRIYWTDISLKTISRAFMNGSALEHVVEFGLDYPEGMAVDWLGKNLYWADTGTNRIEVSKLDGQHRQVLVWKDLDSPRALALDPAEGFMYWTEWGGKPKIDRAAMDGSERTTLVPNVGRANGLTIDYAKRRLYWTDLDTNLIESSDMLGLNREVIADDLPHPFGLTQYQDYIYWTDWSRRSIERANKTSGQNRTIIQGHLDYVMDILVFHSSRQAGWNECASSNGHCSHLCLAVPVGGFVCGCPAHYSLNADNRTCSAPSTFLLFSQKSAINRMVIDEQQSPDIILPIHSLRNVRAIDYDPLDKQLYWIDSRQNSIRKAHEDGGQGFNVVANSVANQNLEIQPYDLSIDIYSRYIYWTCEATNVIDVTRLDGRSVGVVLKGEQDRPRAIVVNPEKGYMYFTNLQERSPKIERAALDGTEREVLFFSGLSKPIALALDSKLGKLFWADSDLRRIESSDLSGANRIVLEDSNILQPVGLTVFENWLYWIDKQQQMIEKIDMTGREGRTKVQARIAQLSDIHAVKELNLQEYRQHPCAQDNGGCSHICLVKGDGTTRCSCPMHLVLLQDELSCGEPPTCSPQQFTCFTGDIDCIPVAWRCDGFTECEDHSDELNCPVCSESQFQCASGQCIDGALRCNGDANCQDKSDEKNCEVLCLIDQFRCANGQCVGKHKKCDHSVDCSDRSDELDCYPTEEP

[2] = molecular target: T2, human LRP6 (AA 20-1368) tagged with human IgG1 Fc (human, UniProt O75581 20-1368); assay: SPR; Sierra SPR-32, protein A sensor chip; human LRP6-Fc captured at 1200-1500 RU in HBS-EP+ (Fig. 4b); AAV injected at 10 µL per min for 240 s, 600 s dissociation; AAV from 2.4 × 10^12 v.g. per mL in twofold dilutions; apparent affinity, avid format
T2 construct: human LRP6, AA 20-1368; the methods call it full-length, the results the extracellular domain; also called human LRP6-Fc; human LRP6 extracellular domain; source: bought: Bio-Techne
T2 sequence (looked up): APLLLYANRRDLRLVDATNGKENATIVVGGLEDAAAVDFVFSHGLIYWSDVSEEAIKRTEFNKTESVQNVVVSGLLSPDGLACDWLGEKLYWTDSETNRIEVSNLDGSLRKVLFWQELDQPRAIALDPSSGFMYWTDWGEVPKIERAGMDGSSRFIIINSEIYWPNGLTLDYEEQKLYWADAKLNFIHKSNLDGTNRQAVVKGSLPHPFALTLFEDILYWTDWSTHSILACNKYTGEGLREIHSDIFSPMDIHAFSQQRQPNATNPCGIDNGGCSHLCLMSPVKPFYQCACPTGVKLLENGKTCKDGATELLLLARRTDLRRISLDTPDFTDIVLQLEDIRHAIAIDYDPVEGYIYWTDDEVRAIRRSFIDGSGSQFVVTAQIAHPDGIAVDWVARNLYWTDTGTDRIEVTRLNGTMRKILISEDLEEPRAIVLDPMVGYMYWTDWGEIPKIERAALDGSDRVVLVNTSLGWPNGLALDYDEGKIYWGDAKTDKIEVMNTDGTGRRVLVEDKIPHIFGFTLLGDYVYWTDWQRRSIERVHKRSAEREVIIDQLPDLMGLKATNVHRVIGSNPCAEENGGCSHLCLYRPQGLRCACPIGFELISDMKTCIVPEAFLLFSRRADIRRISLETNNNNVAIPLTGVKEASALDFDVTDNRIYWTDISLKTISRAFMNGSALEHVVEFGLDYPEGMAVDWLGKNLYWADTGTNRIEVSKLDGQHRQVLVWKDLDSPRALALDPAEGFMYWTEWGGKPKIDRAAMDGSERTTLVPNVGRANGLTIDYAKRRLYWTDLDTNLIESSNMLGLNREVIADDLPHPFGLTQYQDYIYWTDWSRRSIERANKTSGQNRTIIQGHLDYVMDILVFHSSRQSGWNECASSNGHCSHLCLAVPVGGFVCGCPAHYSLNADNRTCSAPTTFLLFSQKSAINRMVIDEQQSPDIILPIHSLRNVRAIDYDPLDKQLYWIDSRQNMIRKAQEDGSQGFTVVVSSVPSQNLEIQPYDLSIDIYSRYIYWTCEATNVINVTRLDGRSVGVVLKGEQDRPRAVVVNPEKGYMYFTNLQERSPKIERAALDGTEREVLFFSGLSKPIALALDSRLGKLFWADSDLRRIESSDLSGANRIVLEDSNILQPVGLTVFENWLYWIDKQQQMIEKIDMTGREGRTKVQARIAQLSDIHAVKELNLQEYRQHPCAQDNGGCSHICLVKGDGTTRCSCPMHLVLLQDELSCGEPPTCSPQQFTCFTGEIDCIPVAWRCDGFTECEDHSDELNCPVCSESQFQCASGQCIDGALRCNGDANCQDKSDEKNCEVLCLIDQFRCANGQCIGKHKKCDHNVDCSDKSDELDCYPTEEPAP

AAV.CAP-Mac capsid = molecular target: B3; assay: SPR; Sierra SPR-32, protein A sensor chip; Fc-fusion protein captured at 600-800 RU in HBS-EP+; AAV injected at 10 µL per min for 240 s, 600 s dissociation; AAV from 2.4 × 10^12 v.g. per mL in twofold dilutions; avid format
AAV9-X1.1 capsid = molecular target: B1; assay: as above
AAV-BI30 capsid = molecular target: T3, AAV-BI30 capsid (adeno-associated virus 9, UniProt Q6JC40 1-736, VR VIII AA587-590 AQ - - - - - - - AQ to AQNNSTRGGAQ); assay: as above
T3 construct: AAV9 capsid protein VP1 with an insertion in VR-VIII; numbers count on VP1; source: HEK293 cells, triple transfected, purified (iodixanol gradient); copies: 60

Binder: B1
- binding result [1]: binds
- binding result [2]: binds

Binder: B2
- binding result (AAV.CAP-Mac capsid): binds
- binding result (AAV9-X1.1 capsid): binds
- binding result (AAV-BI30 capsid): binds

Binder: B3
- binding result [1]: binds
- binding result [2]: binds
